Measurements as given in publication PMC10103940.

Target: yNup100FG (yeast) (UniProt Q02629)
Assay: high-speed atomic force microscopy

Sequence of UniProt Q02629 (Q02629 whole entry): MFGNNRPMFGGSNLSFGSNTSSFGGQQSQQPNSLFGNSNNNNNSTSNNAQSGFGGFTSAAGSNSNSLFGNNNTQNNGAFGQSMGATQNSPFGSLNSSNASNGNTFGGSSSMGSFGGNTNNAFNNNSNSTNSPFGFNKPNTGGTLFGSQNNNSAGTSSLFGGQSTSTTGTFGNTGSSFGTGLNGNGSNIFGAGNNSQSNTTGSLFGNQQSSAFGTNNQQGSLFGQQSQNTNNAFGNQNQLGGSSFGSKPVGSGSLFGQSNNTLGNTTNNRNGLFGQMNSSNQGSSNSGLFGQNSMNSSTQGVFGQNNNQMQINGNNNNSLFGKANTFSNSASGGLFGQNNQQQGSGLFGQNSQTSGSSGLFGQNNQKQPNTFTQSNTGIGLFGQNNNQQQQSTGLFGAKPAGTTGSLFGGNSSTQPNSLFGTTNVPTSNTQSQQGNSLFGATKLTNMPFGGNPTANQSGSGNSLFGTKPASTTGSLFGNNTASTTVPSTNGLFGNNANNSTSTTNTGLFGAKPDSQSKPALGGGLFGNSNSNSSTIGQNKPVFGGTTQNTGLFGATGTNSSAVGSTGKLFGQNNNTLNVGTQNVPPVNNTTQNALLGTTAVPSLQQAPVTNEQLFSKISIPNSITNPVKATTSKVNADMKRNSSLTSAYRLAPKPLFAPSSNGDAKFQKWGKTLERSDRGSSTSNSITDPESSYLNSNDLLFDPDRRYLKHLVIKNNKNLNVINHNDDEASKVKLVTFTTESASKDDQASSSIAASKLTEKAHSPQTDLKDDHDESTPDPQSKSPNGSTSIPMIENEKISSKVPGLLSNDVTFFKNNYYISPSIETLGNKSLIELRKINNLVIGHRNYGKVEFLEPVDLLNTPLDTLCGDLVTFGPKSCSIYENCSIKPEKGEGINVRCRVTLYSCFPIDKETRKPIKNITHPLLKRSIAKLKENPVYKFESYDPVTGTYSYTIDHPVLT

## Yeast Kap95 (recombinant) (from UniProt Q06142 1-861) (natural protein)
  height increase of the hydrogel due to Kap95 binding: 31.2 nm
